Measurements: PMC9335043, “The novel ZmTCP7 transcription factor targets AGPase-encoding gene ZmBt2 to regulate storage starch accumulation in maize”

T1: GST-ZmTCP7 (Zea mays, UniProt B4FHV6 1-275)
T1 sequence: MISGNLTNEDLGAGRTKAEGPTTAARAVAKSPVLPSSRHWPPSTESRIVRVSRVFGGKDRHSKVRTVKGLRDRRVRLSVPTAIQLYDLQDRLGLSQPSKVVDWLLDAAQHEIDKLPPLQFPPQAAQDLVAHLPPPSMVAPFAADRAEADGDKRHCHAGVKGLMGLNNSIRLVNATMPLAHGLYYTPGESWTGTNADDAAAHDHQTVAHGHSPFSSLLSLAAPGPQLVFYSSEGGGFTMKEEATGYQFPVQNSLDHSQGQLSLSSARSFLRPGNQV

B1: unlabeled WT 30 bp competitor (dsDNA)
DNA 1: CACACTTTAGAACCCCACGCCTTTACCTAA
DNA 2: TTAGGTAAAGGCGTGGGGTTCTAAAGTGTG
B2: PWT (ZmBt2 promoter 30 bp probe) (dsDNA)
DNA 1: B1 DNA 1
DNA 2: B1 DNA 2
B3: PMu (mutated ZmBt2 promoter 30 bp probe) (dsDNA)
DNA 1: CACACTTTAGAAAAAACAGCCTTTACCTAA
DNA 2: TTAGGTAAAGGCTGTTTTTTCTAAAGTGTG

What was measured:
[1] = target: T1, GST-ZmTCP7; test: competition; unlabeled competitor vs PWT: considerably reduced at 50x, almost completely removed at 100x; LightShift chemiluminescent EMSA kit buffer (composition and pH not stated), 25 C, 30 min, 8% PAGE; conditions: protein: recombinant; tags: N-terminal GST (pGEX-6-1); chain copies: 2
[2] = target: T1, GST-ZmTCP7; test: EMSA; LightShift chemiluminescent EMSA kit buffer (composition and pH not stated), 25 C, 30 min, 8% PAGE; conditions: protein: recombinant; tags: N-terminal GST (pGEX-6-1); chain copies: 2; label: 3' biotin

Binder	binding result [1]	binding result [2]
B1	binds	
B2		binds
B3		no binding
